The chains are these.
B1: Hexa-His tagged full length HIV IN (enzyme)
chain: FLDGIDKAQEEHEKYHSNWRAMASDFNLPPVVAKEIVASCDKCQLKGEAMHGQVDCSPGIWQLDCTHLEGKVILVAVHVASGYIEAEVIPAETGQETAYFLLKLAGRWPVKTVHTDNGSNFTSTTVKAACWWAGIKQEFGIPYNPQSQGVIESMNKELKKIIGQVRDQAEHLKTAVQMAVFIHNFKRKGGIGGYSAGERIVDIIATDIQTKELQKQITKIQNFRVYYRDSRDPVWKGPAKLLWKGEGAVVIQDNSDIKVVPRRKAKIIRDYGKQMAGDDCVASRQDED
notes: HIV-1 integrase, the cut product of the Gag-Pol polyprotein; also called His6-tagged IN; HIV integrase; source: E. coli BL21(DE3), purified (nickel HiTrap column)

For test [1], the target named is T1, FLAG epitope tagged LEDGF protein (UniProt O75475 1-530).
T1 construct: lens epithelium derived growth factor (LEDGF/p75), coded by the PSIP1 gene; also called FLAG-LEDGF; Flag-tagged LEDGF; source: E. coli BL21(DE3), purified (heparin column, SP column); not shown: FLAG, N-terminal, kept
The test can be described thus: AlphaScreen or HTRF; His6-tagged IN (30 nM) on Ni-chelate donor beads, Flag-tagged LEDGF (30 nM) on anti-FLAG acceptor beads; 25 mM Tris-Cl pH 7.5, 25 mM NaCl, 5 mM MnCl2, 5 mM MgCl2, 5 mM BME, 50 ug/ml BSA, 0.05% Tween-20; 1 hour at 30°C; competition with untagged LEDGF. The note with it: both partners purified. (In general: Bead proximity is the source of the signal in Alpha formats.)

Test [2] concerns the target B1. The description is as above. The note with it: both partners purified.

Experimental findings from paper PMC3393750, “Small Molecule Inhibitors of the LEDGF Site of Human Immunodeficiency Virus Integrase Identified by Fragment Screening and Structure Based Design” (PLoS ONE, 2012) are described below.

Regarding B1, the binding result in test [1] is “binds”.

B2: Untagged LEDGF (natural protein)
chain: not shown
notes: lens epithelium derived growth factor (LEDGF/p75), coded by the PSIP1 gene; source: E. coli, purified as described for FLAG-LEDGF
In the case of B2, the “percent reduction of the AlphaScreen signal at a 1:1 molar ratio with FLAG-LEDGF” value in test [2] was determined as 50%.
